The values below are quoted from earlier work in publication PMC5811392.

One data set concerns the target p53 DBD (Homo sapiens) (UniProt P04637).
The next data set concerns the target p53 (Homo sapiens) (UniProt P04637).

Sequence of BCL-xL (Q07817 whole entry): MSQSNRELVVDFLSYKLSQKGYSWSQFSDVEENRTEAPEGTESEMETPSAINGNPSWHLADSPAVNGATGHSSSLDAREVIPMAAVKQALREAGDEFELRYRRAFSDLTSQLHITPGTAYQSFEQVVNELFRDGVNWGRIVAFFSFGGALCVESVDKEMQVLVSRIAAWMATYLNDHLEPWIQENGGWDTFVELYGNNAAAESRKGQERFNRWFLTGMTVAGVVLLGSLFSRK
Sequence of p53 DBD (Homo sapiens) (P04637 94-312): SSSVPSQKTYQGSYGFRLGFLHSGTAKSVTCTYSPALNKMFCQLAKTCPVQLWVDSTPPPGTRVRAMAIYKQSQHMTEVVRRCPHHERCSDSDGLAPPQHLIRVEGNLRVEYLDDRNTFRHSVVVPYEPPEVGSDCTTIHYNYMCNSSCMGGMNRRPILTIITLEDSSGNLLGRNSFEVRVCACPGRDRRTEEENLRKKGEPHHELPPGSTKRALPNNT
Sequence of p53 (Homo sapiens) (P04637 whole entry): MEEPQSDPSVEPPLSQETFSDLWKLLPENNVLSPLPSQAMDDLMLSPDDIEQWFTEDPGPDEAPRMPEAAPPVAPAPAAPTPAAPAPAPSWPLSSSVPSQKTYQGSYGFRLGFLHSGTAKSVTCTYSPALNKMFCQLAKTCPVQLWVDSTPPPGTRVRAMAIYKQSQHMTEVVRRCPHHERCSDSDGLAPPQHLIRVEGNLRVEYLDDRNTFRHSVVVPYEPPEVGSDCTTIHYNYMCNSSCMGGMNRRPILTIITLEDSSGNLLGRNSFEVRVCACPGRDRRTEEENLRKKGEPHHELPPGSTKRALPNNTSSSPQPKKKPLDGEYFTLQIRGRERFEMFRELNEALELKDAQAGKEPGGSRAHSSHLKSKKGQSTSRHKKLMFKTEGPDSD

Take BCL-xL (from UniProt Q07817): the Kd in the data set with p53 DBD (Homo sapiens) is 17 µM; in the data set with p53 (Homo sapiens), 1 µM.

The Kd is the equilibrium constant for the complex coming apart.
